Data from publication PMC7367873, “Dissecting the sequence determinants for dephosphorylation by the catalytic subunits of phosphatases PP1 and PP2A” (Nature Communications, 2020).

Experiments:
GFP-14-3-3β = GFP-14-3-3β co-IP with LC-MS/MS, untreated GFP-14-3-3β versus GFP control (14-3-3 interactome); assay type: binding, human; conditions: untreated vs GFP; label-free quantification
[1] = test system: GFP-14-3-3β and its binding proteins; assay: GFP-14-3-3β co-IP with LC-MS/MS label-free quantification, untreated versus PP1c-treated; design: species or system human; conditions: PP1 vs untreated; label-free quantification

Molecule	Difference (log2), PP1 vs untreated [1] [log2]	Difference (log2), untreated vs GFP (GFP-14-3-3β) [log2]
ABCG2 (protein, UniProt Q9UNQ0 1-655, looked up) Broad substrate specificity …: MSSSNVEVFIPVSQGNTNGFPATASNDLKAFTEGAVLSFHNICYRVKLKSGFLPCRKPVEKEILSNINGIMKPGLNAILGPTGGGKSSLLDVLAARKDPSGLSGDVLINGAPRPANFKCNSGYVVQDDVVMGTLTVRENLQFSAALRLATTMTNHEKNERINRVIQELGLDKVADSKVGTQFIRGVSGGERKRTSIGMELITDPSILFLDEPTTGLDSSTANAVLLLLKRMSKQGRTIIFSIHQPRYSIFKLFDSLTLLASGRLMFHGPAQEALGYFESAGYHCEAYNNPADFFLDIINGDSTAVALNREEDFKATEIIEPSKQDKPLIEKLAEIYVNSSFYKETKAELHQLSGGEKKKKITVFKEISYTTSFCHQLRWVSKRSFKNLLGNPQASIAQIIVTVVLGLVIGAIYFGLKNDSTGIQNRAGVLFFLTTNQCFSSVSAVELFVVEKKLFIHEYISGYYRVSSYFLGKLLSDLLPMRMLPSIIFTCIVYFMLGLKPKADAFFVMMFTLMMVAYSASSMALAIAAGQSVVSVATLLMTICFVFMMIFSGLLVNLTTIASWLSWLQYFSIPRYGFTALQHNEFLGQNFCPGLNATGNNPCNYATCTGEEYLVKQGIDLSPWGLWKNHVALACMIVIFLTIAYLKLLFLKKYS	0.9597	-0.7786
G3BP2 (protein, UniProt Q9UN86 2-482, looked up) Ras GTPase-activating …: VMEKPSPLLVGREFVRQYYTLLNKAPEYLHRFYGRNSSYVHGGVDASGKPQEAVYGQNDIHHKVLSLNFSECHTKIRHVDAHATLSDGVVVQVMGLLSNSGQPERKFMQTFVLAPEGSVPNKFYVHNDMFRYEDEVFGDSEPELDEESEDEVEEEQEERQPSPEPVQENANSGYYEAHPVTNGIEEPLEESSHEPEPEPESETKTEELKPQVEEKNLEELEEKSTTPPPAEPVSLPQEPPKAFSWASVTSKNLPPSGTVSSSGIPPHVKAPVSQPRVEAKPEVQSQPPRVREQRPRERPGFPPRGPRPGRGDMEQNDSDNRRIIRYPDSHQLFVGNLPHDIDENELKEFFMSFGNVVELRINTKGVGGKLPNFGFVVFDDSEPVQRILIAKPIMFRGEVRLNVEEKKTRAARERETRGGGDDRRDIRRNDRGPGGPRGIVGGGMMRDRDGRGPPPRGGMAQKLGSGRGTGQMEGRFTGQRR	0.991	0.002451
MGST1 (protein, UniProt P10620 1-155, looked up) Microsomal glutathione …: MVDLTQVMDDEVFMAFASYATIILSKMMLMSTATAFYRLTRKVFANPEDCVAFGKGENAKKYLRTDDRVERVRRAHLNDLENIIPFLGIGLLYSLSGPDPSTAILHFRLFVGARIYHTIAYLTPLPQPNRALSFFVGYGVTLSMAYRLLKSKLYL	1.003	1.613
ALDH18A1 (protein, UniProt P54886 1-795, looked up) Delta-1-pyrroline-5-carboxylat …: MLSQVYRCGFQPFNQHLLPWVKCTTVFRSHCIQPSVIRHVRSWSNIPFITVPLSRTHGKSFAHRSELKHAKRIVVKLGSAVVTRGDECGLALGRLASIVEQVSVLQNQGREMMLVTSGAVAFGKQRLRHEILLSQSVRQALHSGQNQLKEMAIPVLEARACAAAGQSGLMALYEAMFTQYSICAAQILVTNLDFHDEQKRRNLNGTLHELLRMNIVPIVNTNDAVVPPAEPNSDLQGVNVISVKDNDSLAARLAVEMKTDLLIVLSDVEGLFDSPPGSDDAKLIDIFYPGDQQSVTFGTKSRVGMGGMEAKVKAALWALQGGTSVVIANGTHPKVSGHVITDIVEGKKVGTFFSEVKPAGPTVEQQGEMARSGGRMLATLEPEQRAEIIHHLADLLTDQRDEILLANKKDLEEAEGRLAAPLLKRLSLSTSKLNSLAIGLRQIAASSQDSVGRVLRRTRIAKNLELEQVTVPIGVLLVIFESRPDCLPQVAALAIASGNGLLLKGGKEAAHSNRILHLLTQEALSIHGVKEAVQLVNTREEVEDLCRLDKMIDLIIPRGSSQLVRDIQKAAKGIPVMGHSEGICHMYVDSEASVDKVTRLVRDSKCEYPAACNALETLLIHRDLLRTPLFDQIIDMLRVEQVKIHAGPKFASYLTFSPSEVKSLRTEYGDLELCIEVVDNVQDAIDHIHKYGSSHTDVIVTEDENTAEFFLQHVDSACVFWNASTRFSDGYRFGLGAEVGISTSRIHARGPVGLEGLLTTKWLLRGKDHVVSDFSEHGSLKYLHENLPIPQRNTN	0.9496	-0.8261
RPN1 (protein, UniProt P04843 24-607, looked up) Dolichyl-diphosphooligosacchar …: ASSEAPPLINEDVKRTVDLSSHLAKVTAEVVLAHLGGGSTSRATSFLLALEPELEARLAHLGVQVKGEDEEENNLEVRETKIKGKSGRFFTVKLPVALDPGAKISVIVETVYTHVLHPYPTQITQSEKQFVVFEGNHYFYSPYPTKTQTMRVKLASRNVESYTKLGNPTRSEDLLDYGPFRDVPAYSQDTFKVHYENNSPFLTITSMTRVIEVSHWGNIAVEENVDLKHTGAVLKGPFSRYDYQRQPDSGISSIRSFKTILPAAAQDVYYRDEIGNVSTSHLLILDDSVEMEIRPRFPLFGGWKTHYIVGYNLPSYEYLYNLGDQYALKMRFVDHVFDEQVIDSLTVKIILPEGAKNIEIDSPYEISRAPDELHYTYLDTFGRPVIVAYKKNLVEQHIQDIVVHYTFNKVLMLQEPLLVVAAFYILFFTVIIYVRLDFSITKDPAAEARMKVACITEQVLTLVNKRIGLYRHFDETVNRYKQSRDISTLNSGKKSLETEHKALTSEIALLQSRLKTEGSDLCDRVSEMQKLDAQVKELVLKSAVEAERLVAGKLKKDTYIENEKLISGKRQELVTKIDHILDAL	1.002	0.04558
HACD3 (protein, UniProt Q9P035 1-362, looked up) Very-long-chain …: MENQVLTPHVYWAQRHRELYLRVELSDVQNPAISITENVLHFKAQGHGAKGDNVYEFHLEFLDLVKPEPVYKLTQRQVNITVQKKVSQWWERLTKQEKRPLFLAPDFDRWLDESDAEMELRAKEEERLNKLRLESEGSPETLTNLRKGYLFMYNLVQFLGFSWIFVNLTVRFCILGKESFYDTFHTVADMMYFCQMLAVVETINAAIGVTTSPVLPSLIQLLGRNFILFIIFGTMEEMQNKAVVFFVFYLWSAIEIFRYSFYMLTCIDMDWKVLTWLRYTLWIPLYPLGCLAEAVSVIQSIPIFNETGRFSFTLPYPVKIKVRFSFFLQIYLIMIFLGLYINFRHLYKQRRRRYGQKKKKIH	0.9389	-0.3489
SERBP1 (protein, UniProt Q8NC51 2-408, looked up) SERPINE1 mRNA-binding protein …: PGHLQEGFGCVVTNRFDQLFDDESDPFEVLKAAENKKKEAGGGGVGGPGAKSAAQAAAQTNSNAAGKQLRKESQKDRKNPLPPSVGVVDKKEETQPPVALKKEGIRRVGRRPDQQLQGEGKIIDRRPERRPPRERRFEKPLEEKGEGGEFSVDRPIIDRPIRGRGGLGRGRGGRGRGMGRGDGFDSRGKREFDRHSGSDRSSFSHYSGLKHEDKRGGSGSHNWGTVKDELTESPKYIQKQISYNYSDLDQSNVTEETPEGEEHHPVADTENKENEVEEVKEEGPKEMTLDEWKAIQNKDRAKVEFNIRKPNEGADGQWKKGFVLHKSKSEEAHAEDSVMDHHFRKPANDITSQLEINFGDLGRPGRGGRGGRGGRGRGGRPNRGSRTDKSSASAPDVDDPEAFPALA	1.03	-0.2637

Now from value to molecule, other results behind:

Difference (log2), PP1 vs untreated [1] [log2]	Molecule	Difference (log2), untreated vs GFP (GFP-14-3-3β) [log2]
1.045	YTHDF2 (protein, UniProt Q9Y5A9 2-579, looked up) YTH domain-containing family …: SASSLLEQRPKGQGNKVQNGSVHQKDGLNDDDFEPYLSPQARPNNAYTAMSDSYLPSYYSPSIGFSYSLGEAAWSTGGDTAMPYLTSYGQLSNGEPHFLPDAMFGQPGALGSTPFLGQHGFNFFPSGIDFSAWGNNSSQGQSTQSSGYSSNYAYAPSSLGGAMIDGQSAFANETLNKAPGMNTIDQGMAALKLGSTEVASNVPKVVGSAVGSGSITSNIVASNSLPPATIAPPKPASWADIASKPAKQQPKLKTKNGIAGSSLPPPPIKHNMDIGTWDNKGPVAKAPSQALVQNIGQPTQGSPQPVGQQANNSPPVAQASVGQQTQPLPPPPPQPAQLSVQQQAAQPTRWVAPRNRGSGFGHNGVDGNGVGQSQAGSGSTPSEPHPVLEKLRSINNYNPKDFDWNLKHGRVFIIKSYSEDDIHRSIKYNIWCSTEHGNKRLDAAYRSMNGKGPVYLLFSVNGSGHFCGVAEMKSAVDYNTCAGVWSQDKWKGRFDVRWIFVKDVPNSQLRHIRLENNENKPVTNSRDTQEVPLEKAKQVLKIIASYKHTTSIFDDFSHYEKRQEEEESVKKERQGRGK	1.029
1.025	ZC3HAV1 (protein, UniProt Q7Z2W4 2-902, looked up) Zinc finger CCCH-type …: ADPEVCCFITKILCAHGGRMALDALLQEIALSEPQLCEVLQVAGPDRFVVLETGGEAGITRSVVATTRARVCRRKYCQRPCDNLHLCKLNLLGRCNYSQSERNLCKYSHEVLSEENFKVLKNHELSGLNKEELAVLLLQSDPFFMPEICKSYKGEGRQQICNQQPPCSRLHICDHFTRGNCRFPNCLRSHNLMDRKVLAIMREHGLNPDVVQNIQDICNSKHMQKNPPGPRAPSSHRRNMAYRARSKSRDRFFQGSQEFLASASASAERSCTPSPDQISHRASLEDAPVDDLTRKFTYLGSQDRARPPSGSSKATDLGGTSQAGTSQRFLENGSQEDLLHGNPGSTYLASNSTSAPNWKSLTSWTNDQGARRKTVFSPTLPAARSSLGSLQTPEAVTTRKGTGLLSSDYRIINGKSGTQDIQPGPLFNNNADGVATDITSTRSLNYKSTSSGHREISSPRIQDAGPASRDVQATGRIADDADPRVALVNDSLSDVTSTTSSRVDDHDSEEICLDHLCKGCPLNGSCSKVHFHLPYRWQMLIGKTWTDFEHMETIEKGYCNPGIHLCSVGSYTINFRVMSCDSFPIRRLSTPSSVTKPANSVFTTKWIWYWKNESGTWIQYGEEKDKRKNSNVDSSYLESLYQSCPRGVVPFQAGSRNYELSFQGMIQTNIASKTQKDVIRRPTFVPQWYVQQMKRGPDHQPAKTSSVSLTATFRPQEDFCFLSSKKYKLSEIHHLHPEYVRVSEHFKASMKNFKIEKIKKIENSELLDKFTWKKSQMKEEGKLLFYATSRAYVESICSNNFDSFLHETHENKYGKGIYFAKDAIYSHKNCPYDAKNVVMFVAQVLVGKFTEGNITYTSPPPQFDSCVDTRSNPSVFVIFQKDQVYPQYVIEYTEDKACVIS	-0.3627
0.9341	TOMM22 (protein, UniProt Q9NS69 2-142, looked up) Mitochondrial import receptor …: AAAVAAAGAGEPQSPDELLPKGDAEKPEEELEEDDDEELDETLSERLWGLTEMFPERVRSAAGATFDLSLFVAQKMYRFSRAALWIGTTSFMILVLPVVFETEKLQMEQQQQLQQRQILLGPNTGLSGGMPGALPSLPGKI	-0.3585
1.025	SLC25A3 (protein, UniProt Q00325 50-362, looked up) Solute carrier family 25 …: AVEEQYSCDYGSGRFFILCGLGGIISCGTTHTALVPLDLVKCRMQVDPQKYKGIFNGFSVTLKEDGVRGLAKGWAPTFLGYSMQGLCKFGFYEVFKVLYSNMLGEENTYLWRTSLYLAASASAEFFADIALAPMEAAKVRIQTQPGYANTLRDAAPKMYKEEGLKAFYKGVAPLWMRQIPYTMMKFACFERTVEALYKFVVPKPRSECSKPEQLVVTFVAGYIAGVFCAIVSHPADSVVSVLNKEKGSSASLVLKRLGFKGVWKGLFARIIMIGTLTALQWFIYDSVKVYFRLPRPPPPEMPESLKKKLGLTQ	1.257
